Data: publication PMC10885103 (2023)
Bridges are numbered along the chain shown (N, C = ends). Where no end group is shown, it is not given here. [ ]: non-standard residue; d: D form.

Molecular target: T1, TNFR-1 CRD2 72-116 (Homo sapiens, UniProt P19438)
T1 chain: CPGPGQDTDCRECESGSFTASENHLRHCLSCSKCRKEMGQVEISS
Assay: grating-coupled interferometry

Kd: 1000 nM
Binder: [dC](cysteinyl)[dF][dH][dC][dI][dW][dL]G[dD][dE][dC] (disulfide 4-11; also: CRD2 with C-terminal biotin linker) [d-TCPB]
